Seven molecules from US20250145724A1 (TWIST BIOSCIENCE, published 2025) can be followed below.

Assay [1] deals with T1, Adenosine A2A receptor (human) (human, UniProt P29274 1-412). The experiment in a line: cell-based or functional assay.
In assay [2] the target is T1, Adenosine A2A receptor (human). The experiment in a line: cell-based or functional assay. The source holds these as a separate data set.
The target is the same in assay [3]. The assay is described as follows: cell binding titration from 100 nM, RL1-H MFI; panel 'Immune Library to A2a protein + ZM241385'.
Protocol: (§1) Purified A2a immunoglobulins from Tables 15-18 were assayed for binding in a titration from 100 nM.
The target is the same in assay [4]. The assay is described as follows: flow cytometry titration of IgG from 100 nM on hA2a (RL1-H MFI against IgG in nM); EC50 from the table drawn beside the curves. A general note: A flow cytometer gives signals particle by particle.
In assay [5] the target is T2, hA1 receptor (human, UniProt P30542 1-326).
T2 construct: whole, on cells
T2 sequence (looked up): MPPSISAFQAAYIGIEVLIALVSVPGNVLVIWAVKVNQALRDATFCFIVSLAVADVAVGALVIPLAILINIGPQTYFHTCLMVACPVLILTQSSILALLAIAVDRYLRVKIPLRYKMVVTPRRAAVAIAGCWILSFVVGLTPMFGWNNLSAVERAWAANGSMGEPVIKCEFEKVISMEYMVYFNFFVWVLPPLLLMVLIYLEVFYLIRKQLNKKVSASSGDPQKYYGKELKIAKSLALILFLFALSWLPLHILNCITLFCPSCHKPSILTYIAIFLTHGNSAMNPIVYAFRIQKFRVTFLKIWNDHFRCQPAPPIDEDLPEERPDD
The experiment in a line: In vitro specificity, flow cytometry MFI at 100 nM IgG on hA1.

Assay [6] addresses T3, hA3 receptor (human, UniProt P0DMS8 1-318).
T3 construct: whole, on cells
T3 sequence (looked up): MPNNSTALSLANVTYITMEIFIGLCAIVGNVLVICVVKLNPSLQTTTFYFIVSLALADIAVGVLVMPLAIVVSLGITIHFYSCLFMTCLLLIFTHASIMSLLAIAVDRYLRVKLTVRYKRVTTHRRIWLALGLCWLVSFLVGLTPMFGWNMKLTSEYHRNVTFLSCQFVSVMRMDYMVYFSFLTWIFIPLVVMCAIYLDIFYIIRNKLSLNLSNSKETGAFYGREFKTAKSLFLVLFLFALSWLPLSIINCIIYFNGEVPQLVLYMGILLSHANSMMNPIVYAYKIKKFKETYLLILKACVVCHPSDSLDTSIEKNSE
The assay is described as follows: In vitro specificity, flow cytometry MFI at 100 nM IgG on hA3.

Assay [7] has as its target T4, hA2b receptor (human, UniProt P29275 1-332).
T4 construct: whole, on cells; also called adenosine A2B receptor
T4 sequence (looked up): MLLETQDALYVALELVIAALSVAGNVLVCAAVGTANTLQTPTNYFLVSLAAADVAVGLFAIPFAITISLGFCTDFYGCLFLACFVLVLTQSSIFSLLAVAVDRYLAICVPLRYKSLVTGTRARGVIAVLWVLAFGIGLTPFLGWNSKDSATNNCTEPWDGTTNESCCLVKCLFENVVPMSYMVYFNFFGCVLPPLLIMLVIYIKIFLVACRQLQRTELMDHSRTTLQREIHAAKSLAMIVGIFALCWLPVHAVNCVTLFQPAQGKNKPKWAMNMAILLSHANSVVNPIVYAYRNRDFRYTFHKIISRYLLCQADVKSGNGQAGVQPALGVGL
The assay is described as follows: In vitro specificity, flow cytometry MFI at 100 nM IgG on hA2b.

The target of assay [8] is T1, Adenosine A2A receptor (human). The assay is described as follows: cell binding titration from 100 nM, RL1-H MFI; panel 'Synthetic Library to A2a protein + ZM241385'.
Protocol: as §1
The target in assay [9] is T4, hA2b receptor. The assay is described as follows: cell binding on hA2b HEK293T cells, one bar per antibody; the y axis has no label or unit and the antibody concentration is not given.
In assay [10] the target is T1, Adenosine A2A receptor (human). The assay is described as follows: flow cytometry titration 0.05-100 nM IgG, MFI; grey curve taken as HEK293-A2a cells, black as parent cells.
Protocol: (§2) Flow cytometry data showing binding to HEK293-A2a cells using immunoglobulins from variant libraries were generated using 100 nM IgG and compared to detected binding in parent cells. […] Selected variants were assessed for binding at concentrations titrated from 100 nM. […] Binding curves are plotted with IgG concentration vs. MFI (mean fluorescence intensity). […] Selected variants were assessed for binding at concentrations titrated from 100 nM. […] Binding curves are plotted with IgG concentration vs. MFI (mean fluorescence intensity).
Assay [11] shares this target. The experiment in a line: cell binding titration from 100 nM, RL1-H MFI; panel 'Mouse Immune Library to A2a protein'.
Protocol: as §1
For assay [12] the target is unchanged. The assay is described as follows: flow cytometry titration 0.05-100 nM IgG, MFI; grey curve and grey number taken as HEK293-A2a cells, black (ND) as parent cells, no legend on the sheet.
Protocol: as §2

T1 sequence (P29274 whole entry): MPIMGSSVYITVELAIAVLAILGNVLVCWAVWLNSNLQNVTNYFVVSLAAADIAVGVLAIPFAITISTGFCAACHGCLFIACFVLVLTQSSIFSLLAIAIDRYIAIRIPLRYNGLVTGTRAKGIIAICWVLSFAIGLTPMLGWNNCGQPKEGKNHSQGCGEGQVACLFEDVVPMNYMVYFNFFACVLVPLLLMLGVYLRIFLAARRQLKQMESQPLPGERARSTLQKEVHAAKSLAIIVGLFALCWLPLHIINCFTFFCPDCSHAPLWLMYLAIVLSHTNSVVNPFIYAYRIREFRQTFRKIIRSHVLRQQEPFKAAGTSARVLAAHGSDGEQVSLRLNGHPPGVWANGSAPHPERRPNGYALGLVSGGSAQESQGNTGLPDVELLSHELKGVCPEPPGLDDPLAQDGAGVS

B1: A2A-77 (antibody, V domains shown)
VH: QVQLQESGPGLVKPSGTLSLTCAVSGGSISSSNWWSWVRQPPGKGLEWIGEIYHSGNTNYNPSLKSRVTMSVDKSKNQFSLNLHSVTAADTAVYYCAREVVSGMIGTIFDYWGQGTLVTVSS
VL: ELVMTQSPSSLSASVGDRVTITCRASQRISSYLNWYQQKPGKAPKLLIYAASSLQSRVPSRFSGSGSGTDFTLTISSLQPEDFATYYCQQSYSTPLTFGGGTKLETK
notes: Tested as IgG
On to B1, for which the “IC50, T cell activation assay (FIG. 32C)” value in assay [1] is 5.92 nM. Also, the “IC50 (antagonistic cAMP assay, RFU ratio 665/615nm against IgG in nM)” value in assay [2] was 3.52 nM. The EC50 (read off the curve) (commonly the midpoint of the concentration-response curve) in assay [3] was approximately 5 nM. Further, a half-maximal response in assay [4] (EC50) required 5.76 nM.

B2: A2A-81 (antibody, V domains shown)
VH: QVQLQESGPGLVKPSGTLSLTCAVSGGSISSSNWWSWVRQPPGKGLEWIGEIYHSGSTNYNPSLKSRVTISVDKSKNQFSLKLGSVTAADTAVYYCAREVVSGLYGTIFDYWGQGTLVTVSS
VL: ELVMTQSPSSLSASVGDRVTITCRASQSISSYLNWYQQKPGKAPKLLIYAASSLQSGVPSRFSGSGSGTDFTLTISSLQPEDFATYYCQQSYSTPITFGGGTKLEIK
notes: Tested as IgG
Consider B2, for which the binding result in [5], in assay [6] and in assay [7] was “no binding (tested: 100 nM)” each time.

B3: A2A-26 (antibody, V domains shown)
VH: EVQLLESGGGLVQPGGSLRLSCAASGFTFSTYAMGWVRQAPGKGLEWVSGISGSAGSTYYADSVKGRFTISRDNSKNTLYLQMNSLRAEDTAVYYCAAARGHWRWRLGRRYDYWGQGTLVTVSS
VL: DIQMTQSPSSLSASVGDRVTITCRASQTISRYLNWYQQKPGKAPKLLIYSASTLQSGVPSRFSGSGSGTDFTLTISSLQPEDFATYYCQQSYSTPHTFGGGTKVEIK
notes: Tested as IgG
Take B3: the binding result in assay [8] and in [9] was “binds” in each case.

B4: A2A-27 (antibody, V domains shown)
VH: EVQLVESGGGLVKPGGSLRLSCAASGFTFSSYAMAWVRQAPGKGLEWVSAISGSGGSTYFADSVKGRFTISRDNSKNTLYLQMNSLRAEDTAVYYCAAARGYWRWRLWRRYDYWGQGTLVTVSS
VL: DIQMTQSPSSLSASVGDRVTITCRASQSIGSYLNWYQQKPGKAPKLLIYGASNLQSGVPSRFSGSGSGTDFTLTISSLQPEDFATYYCQQGYSAPRTFGGGTKLEIK
notes: Tested as IgG; also called A2A-27 (Alloy)
Take B4: the binding result in assay [8] and in assay [9] was “binds” each time.

B5: A2A-15 (antibody, V domains shown)
VH: EVQLVESGGGLVKPGGSLRLSCAASGFTFSTYGMSWVRQAPGKGLEWVSGISGSGGSTNYADSVKGRFTISRDNSKNTLYLQMNSLRAEDTAVYYCAAARGKWRWRLGRRYDYWGQGTLVTVSS
VL: DIQMTQSPSSLSASVGDRVTITCRASQSIGRYLNWYQQKPGKAPKLLIYAASSLHSGVPSRFSGSGSGTDFTLTISSLQPEDFATYYCQQSYVTPWTFGGGTKLEIK
As for B5, the binding result in assay [10] is reported as “no binding (tested: 100 nM)”.

B6: A2A-84 (antibody, V domains shown)
VH: EVQLVESGGGLVKPGGSLRLSCAASGYTFTEYITHWVRQAPGKGLEWVATISGGGSYTNFPDSVKGRFTISRDNAKNTLFLQMTSLRSEDTAMYYCARPNYSGSSPFAYWGQGTLVTVSA
VL: DIVMTQAPAIMSASPGEKVTMTCSASSSVSYMYWYQQKPGSSPRFLIYDTSNLASGVPVRFSGSGSGTSYSLTISSMEAEDAATYYCQQWNSNPLTFSAGTKLEIK
notes: Tested as IgG
B6: the binding result in assay [11] is reported as “binds”.

B7: A2A-9 (antibody, V domains shown)
VH: EVQLQQSGPGLVKPSQSLSLTCSVTGYSITSGYYWNWIRQFPGKKLEWMGYIRYDGSNNYNPSLKNRISITRDTSKNQFFLKLNSVTTDDTATYYCARVHHYYGSSYFDYWGQGTTLTVSS
VL: DIVMTQSQKFMSTSVGDRVSATCKASQNVGSSVAWFQQKPGQSPKALIYSTSYRYSGVPDRFTGSGSGTDFTLTISNVQSEDLAEYFCQQYNSYPLTFGAGTKLEIK
notes: Tested as IgG
As for B7, the EC50 (as a rule, the concentration that produces a half-maximal response) in [12] worked out at 3.83 nM.
